The target in test [1] is T1, recombinant human TfR (2474-TR, R&D Systems), biotinylated (human, UniProt P02786 89-760, biotinylated with EZ-Link NHS-PEG4-Biotinylation Kit).
T1 construct: Bought protein; also called immobilized recombinant human TfR; biotinylated human TfR
As to the kind of experiment: SPR (Biacore), biotinylated human TfR captured on an SA chip, VHH injected, 1:1 dissociation fit, pH 5.5. The procedure: (§1) E. coli TG1 bacteria were transformed with those plasmids and expressions induced. Crude extracts were prepared and analyzed for binding by flow cytometry on human TfR overexpressing cells. […] Next, off rates of these selected variants were determined on recombinant human TfR by surface plasmon resonance (Biacore, Marlborough, Massachusetts, United States). Biotinylated human TfR was captured on a streptavidin-coated SA sensor chip (Cytiva). Increasing concentrations of nanobodies were sequentially injected in a single cycle at a flow rate of 30 μL/min. The dissociation was monitored for around 20 min. A reference flow was used as a control for non-specific binding and refractive index changes. Several buffer blanks were used for double referencing. Off rates were derived after fitting the experimental data to the 1:1 binding model with the Biacore Evaluation Software.
(§2) Surface Plasmon Resonance (SPR) was used to measure the interaction between VHHs and human or cynomolgus TfR receptor. Human TfR (2474-TR, R&D Systems) and cynomolgus TfR (90253-C07H, Sino Biological) were biotinylated with the EZ-Link NHS-PEG4-Biotinylation Kit (ThermoFischer Scientific) according to the manufacturer instructions. The binding experiments were performed at 25° C. on a Biacore T200 instrument (Cytiva, Uppsala, Sweden) in HBS-EP+ buffer (10 mM HEPES, 150 mM NaCl, 3 mM EDTA and 0.05% v/v Surfactant P20). Biotinylated human TfR and cynomolgus TfR were captured on a SA sensor chip (Cytiva) at a density of around 250 RU. Increasing concentrations of VHHs were sequentially injected in one single cycle at a flow rate of 30 μl/min. The dissociation was monitored for 20 min. […] A reference flow was used as a control for non-specific binding and refractive index changes. Several buffer blanks were used for double referencing. Binding affinities (KD) and kinetic rate constants (kₒₙ, koff) were derived after fitting the experimental data to the 1:1 binding model with the Biacore T200 Evaluation Software 3.1 using the single cycle kinetic procedure.
Background: SPR reads the build-up and loss of mass on a sensor chip optically.

For test [2], the target named is T1, recombinant human TfR (2474-TR, R&D …). As to the kind of experiment: SPR (Biacore), biotinylated human TfR captured on an SA chip, VHH injected, 1:1 dissociation fit, pH 7.4. The procedure:
as §1, §2

Test [3] shares this target. Briefly: SPR (Biacore), ratio of the off rates on human TfR at the two pH values; the printed number equals kd at pH 5.5 divided by kd at pH 7.4. The procedure:
as §1, §2

Test [4] deals with T2, human TfR overexpressed on CHO cells (human, UniProt P02786 1-760).
T2 construct: construct is TfR followed by an HA tag and IRES-GFP; also called hTfR; human transferrin receptor
As to the kind of experiment: flow cytometry, column 'Binding to human TfR1 EC50 (M)'; paragraph 156 calls it the capacity to compete for binding on human TfR1, competitor not named. A general note: A flow cytometer gives signals particle by particle.

In test [5] the target is T3, cynomolgus TfR overexpressed on CHO cells (cynomolgus monkey, UniProt Q5RDH6 1-760 (Pongo abelii entry)).
T3 construct: construct is TfR followed by an HA tag and IRES-GFP; also called cynomolgus monkey TfR1; NHP TfR
T3 chain: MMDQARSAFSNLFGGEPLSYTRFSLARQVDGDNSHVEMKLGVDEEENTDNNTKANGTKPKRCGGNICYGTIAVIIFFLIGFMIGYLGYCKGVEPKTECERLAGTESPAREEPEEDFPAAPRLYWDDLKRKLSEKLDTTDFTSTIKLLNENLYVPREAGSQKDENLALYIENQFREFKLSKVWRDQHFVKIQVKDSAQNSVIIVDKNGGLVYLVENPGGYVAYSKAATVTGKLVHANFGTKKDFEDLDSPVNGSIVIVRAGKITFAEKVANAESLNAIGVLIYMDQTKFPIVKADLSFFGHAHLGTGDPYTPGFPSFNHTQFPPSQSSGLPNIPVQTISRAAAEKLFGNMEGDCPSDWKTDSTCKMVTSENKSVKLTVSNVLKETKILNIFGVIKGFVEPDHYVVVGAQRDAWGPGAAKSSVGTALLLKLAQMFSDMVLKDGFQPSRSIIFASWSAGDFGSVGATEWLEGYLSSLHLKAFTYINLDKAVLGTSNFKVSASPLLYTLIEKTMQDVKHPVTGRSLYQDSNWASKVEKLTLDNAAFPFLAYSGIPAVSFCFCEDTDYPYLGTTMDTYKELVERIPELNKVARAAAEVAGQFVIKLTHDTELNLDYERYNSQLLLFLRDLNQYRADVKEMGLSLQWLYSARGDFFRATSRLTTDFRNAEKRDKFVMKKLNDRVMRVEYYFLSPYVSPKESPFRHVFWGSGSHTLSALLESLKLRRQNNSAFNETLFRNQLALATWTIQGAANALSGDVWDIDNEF
As to the kind of experiment: flow cytometry, column 'Binding to cyno TfR1 EC50 (M)'; paragraph 156 calls it the capacity to compete for binding on cynomolgus monkey TfR1, competitor not named.

T1 sequence (P02786 89-760 limits assumed): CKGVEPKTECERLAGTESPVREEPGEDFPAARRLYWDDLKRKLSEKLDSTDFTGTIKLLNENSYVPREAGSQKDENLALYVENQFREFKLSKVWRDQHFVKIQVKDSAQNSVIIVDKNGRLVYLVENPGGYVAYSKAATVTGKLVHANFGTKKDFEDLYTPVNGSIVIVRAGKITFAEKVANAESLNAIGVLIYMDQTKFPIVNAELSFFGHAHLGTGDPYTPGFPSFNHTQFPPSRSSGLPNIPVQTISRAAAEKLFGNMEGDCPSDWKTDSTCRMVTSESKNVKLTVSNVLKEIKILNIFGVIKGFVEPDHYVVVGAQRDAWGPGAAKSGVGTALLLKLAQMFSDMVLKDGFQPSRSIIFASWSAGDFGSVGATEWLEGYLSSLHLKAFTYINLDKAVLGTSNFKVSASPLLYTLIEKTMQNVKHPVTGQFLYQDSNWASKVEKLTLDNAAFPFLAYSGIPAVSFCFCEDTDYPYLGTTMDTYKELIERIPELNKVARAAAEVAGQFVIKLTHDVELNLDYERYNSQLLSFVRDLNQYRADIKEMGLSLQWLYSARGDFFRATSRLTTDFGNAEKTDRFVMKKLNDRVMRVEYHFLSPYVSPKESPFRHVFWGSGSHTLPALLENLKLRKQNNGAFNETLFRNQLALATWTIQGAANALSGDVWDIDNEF

B1: BBB00737 (VHH)
VHH: EVQLVESGGGLVQAGGSLRLSCAASHSIFSINAMGWYRQAPGKQRELVAVITSGGSTIYADSVKGRFTISRDNAENTVYLQMNSLRPEDTAVYYCNAHVGLKVPTIQELSLGFGSWGQGTLVTVSS
notes: Histidine mutant
Turning to B1, the off-rate (koff) (commonly a measure of how fast the partners let go of each other) in test [1] turned out to be 0.02 s⁻¹; in test [2], 0.00861 s⁻¹. The “off-rate ratio kd pH5.5/kd pH7.4” value in test [3] is 2.32.

B2: BBB00515_h1 (VHH)
VHH: EVQLVESGGGLVQPGGSLRLSCAASGSIFSINAMGWYRQAPGKQRELVAVITSGGSTIYADSVKGRFTISRDNAENTVYLQMNSLRPEDTAVYYCNAHVGLKVPTIQELSLGFGSWGQGTLVTVSS
On to B2, for which the results for the EC50 in test [4] and in test [5] were 120 nM and 26 nM, respectively.

B3: BBB00764 (VHH)
VHH: EVQLVESGGGLVQAGGSLRLSCAASGSIFSINAMGWYRQAPGKQRELVAVITSGGSTIYADSVKGRFTISRDNAENTVYLQMNSLRPEDTAVYYCNAHVGLKVPTIHELSLGFGSWGQGTLVTVSS
notes: Histidine mutant
Consider B3, for which the koff in test [1] is 0.0206 s⁻¹; in test [2], 0.0102 s⁻¹. In test [3], the “off-rate ratio kd pH5.5/kd pH7.4” value is 2.02.

B4: BBB00741 (VHH)
VHH: EVQLVESGGGLVQAGGSLRLSCAASGSIFHINAMGWYRQAPGKQRELVAVITSGGSTIYADSVKGRFTISRDNAENTVYLQMNSLRPEDTAVYYCNAHVGLKVPTIQELSLGFGSWGQGTLVTVSS
notes: also called histidine mutant of BBB00533
As for B4, the off-rate (koff) was found to be 0.0151 s⁻¹ in test [1] and 0.00551 s⁻¹ in test [2]. Further, the “off-rate ratio kd pH5.5/kd pH7.4” value in test [3] came out at 2.74.

B5: BBB00515_h02 (VHH)
VHH: EVQLVESGGGLVQPGGSLRLSCAASGSIFSINAMGWYRQAPGKQRELVAVITSGGSTIYADSVKGRFTISRDNAKNTVYLQMNSLRPEDTAVYYCNAHVGLKVPTIQELSLGFGSWGQGTLVTVSS
notes: The sheet prints E84K (IMGT) against BBB00515_h01; also called BBB00515_h2
Consider B5, for which the results for the concentration for a half-maximal effect (EC50) in test [4] and in test [5] were 67 nM and 23 nM, respectively.

B6: BBB00745 (VHH)
VHH: EVQLVESGGGLVQAGGSLRLSCAASGSIFSINAHGWYRQAPGKQRELVAVITSGGSTIYADSVKGRFTISRDNAENTVYLQMNSLRPEDTAVYYCNAHVGLKVPTIQELSLGFGSWGQGTLVTVSS
notes: Histidine mutant
Take B6: the figures for the koff in test [1] and in test [2] were 0.0161 s⁻¹ and 0.00773 s⁻¹, respectively. Moreover, in test [3], the “off-rate ratio kd pH5.5/kd pH7.4” value is 2.08.

B7: BBB00763 (VHH)
VHH: EVQLVESGGGLVQAGGSLRLSCAASGSIFSINAMGWYRQAPGKQRELVAVITSGGSTIYADSVKGRFTISRDNAENTVYLQMNSLRPEDTAVYYCNAHVGLKVPTHQELSLGFGSWGQGTLVTVSS
notes: as for B4
Consider B7, for which the off-rate (koff) in test [1] came out at 0.022 s⁻¹; in test [2], 0.00933 s⁻¹. In addition, the “off-rate ratio kd pH5.5/kd pH7.4” value in test [3] came out at 2.36.

B8: BBB00740 (VHH)
VHH: EVQLVESGGGLVQAGGSLRLSCAASGSIHSINAMGWYRQAPGKQRELVAVITSGGSTIYADSVKGRFTISRDNAENTVYLQMNSLRPEDTAVYYCNAHVGLKVPTIQELSLGFGSWGQGTLVTVSS
notes: Histidine mutant
With B8, the koff was determined as 0.0221 s⁻¹ in test [1] and 0.00954 s⁻¹ in test [2]. The “off-rate ratio kd pH5.5/kd pH7.4” value in test [3] was 2.32.

B9: BBB00738 (VHH)
VHH: EVQLVESGGGLVQAGGSLRLSCAASGHIFSINAMGWYRQAPGKQRELVAVITSGGSTIYADSVKGRFTISRDNAENTVYLQMNSLRPEDTAVYYCNAHVGLKVPTIQELSLGFGSWGQGTLVTVSS
notes: Histidine mutant
As to B9, the off-rate constant (koff) in test [1] was determined as 0.0171 s⁻¹; in test [2], 0.00918 s⁻¹. The “off-rate ratio kd pH5.5/kd pH7.4” value in test [3] turned out to be 1.86.

B10: BBB00758 (VHH)
VHH: EVQLVESGGGLVQAGGSLRLSCAASGSIFSINAMGWYRQAPGKQRELVAVITSGGSTIYADSVKGRFTISRDNAENTVYLQMNSLRPEDTAVYYCNAHVGHKVPTIQELSLGFGSWGQGTLVTVSS
notes: as for B4
Take B10: the results for the dissociation rate constant (koff) in test [1] and in test [2] were 0.0657 s⁻¹ and 0.00908 s⁻¹, respectively. For the same molecule, in test [3], the “off-rate ratio kd pH5.5/kd pH7.4” value was found to be 7.24.

B11: BBB00772 (VHH)
VHH: EVQLVESGGGLVQAGGSLRLSCAASGSIFSINAMGWYRQAPGKQRELVAVITSGGSTIYADSVKGRFTISRDNAENTVYLQMNSLRPEDTAVYYCNAHVGLKVPTIQELSLGFGHWGQGTLVTVSS
notes: Histidine mutant
Turning to B11, the figures for the koff in test [1] and in test [2] were 0.0141 s⁻¹ and 0.00737 s⁻¹, respectively. In addition, the “off-rate ratio kd pH5.5/kd pH7.4” value in test [3] worked out at 1.92.

B12: BBB00756 (VHH)
VHH: EVQLVESGGGLVQAGGSLRLSCAASGSIFSINAMGWYRQAPGKQRELVAVITSGGSTIYADSVKGRFTISRDNAENTVYLQMNSLRPEDTAVYYCNAHHGLKVPTIQELSLGFGSWGQGTLVTVSS
notes: as for B4
In the case of B12, the results for the koff in test [1] and in test [2] were 0.019 s⁻¹ and 0.00735 s⁻¹, respectively. Further, in test [3], the “off-rate ratio kd pH5.5/kd pH7.4” value is 2.58.

B13: BBB00767 (VHH)
VHH: EVQLVESGGGLVQAGGSLRLSCAASGSIFSINAMGWYRQAPGKQRELVAVITSGGSTIYADSVKGRFTISRDNAENTVYLQMNSLRPEDTAVYYCNAHVGLKVPTIQELHLGFGSWGQGTLVTVSS
notes: Histidine mutant
As for B13, the dissociation rate constant (koff) in test [1] amounted to 0.0113 s⁻¹; in test [2], 0.00507 s⁻¹. Moreover, the “off-rate ratio kd pH5.5/kd pH7.4” value in test [3] amounted to 2.23.

B14: BBB00771 (VHH)
VHH: EVQLVESGGGLVQAGGSLRLSCAASGSIFSINAMGWYRQAPGKQRELVAVITSGGSTIYADSVKGRFTISRDNAENTVYLQMNSLRPEDTAVYYCNAHVGLKVPTIQELSLGFHSWGQGTLVTVSS
notes: Histidine mutant
For the molecule B14, the koff in test [1] came to 0.0183 s⁻¹; in test [2] it was 0.011 s⁻¹. Besides, the “off-rate ratio kd pH5.5/kd pH7.4” value in test [3] was 1.67.

B15: BBB00739 (VHH)
VHH: EVQLVESGGGLVQAGGSLRLSCAASGSHFSINAMGWYRQAPGKQRELVAVITSGGSTIYADSVKGRFTISRDNAENTVYLQMNSLRPEDTAVYYCNAHVGLKVPTIQELSLGFGSWGQGTLVTVSS
notes: as for B4
As for B15, the figures for the koff in test [1] and in test [2] were 0.0223 s⁻¹ and 0.00761 s⁻¹, respectively. Further, the “off-rate ratio kd pH5.5/kd pH7.4” value in test [3] was found to be 2.93.

B16: BBB00770 (VHH)
VHH: EVQLVESGGGLVQAGGSLRLSCAASGSIFSINAMGWYRQAPGKQRELVAVITSGGSTIYADSVKGRFTISRDNAENTVYLQMNSLRPEDTAVYYCNAHVGLKVPTIQELSLGHGSWGQGTLVTVSS
notes: as for B4
As to B16, the koff in test [1] was 0.0245 s⁻¹; in test [2] it was 0.00727 s⁻¹. Moreover, the “off-rate ratio kd pH5.5/kd pH7.4” value in test [3] was found to be 3.37.
